# From patent US20260115269A1, “MYC[…] CELL EPITOPES, MEGAPOOLS AND USES THEREOF” (La Jolla Institute for Immunology, priority 2022, published 2026)
# B1: Rv1196: Mtb vaccine candidate antigen, tested as peptides (protein, UniProt L7N675 1-391, looked up)
# PPE family protein PPE18: MVDFGALPPEINSARMYAGPGSASLVAAAQMWDSVASDLFSAASAFQSVVWGLTVGSWIGSSAGLMVAAASPYVAWMSVTAGQAELTAAQVRVAAAAYETAYGLTVPPPVIAENRAELMILIATNLLGQNTPAIAVNEAEYGEMWAQDAAAMFGYAAATATATATLLPFEEAPEMTSAGGLLEQAAAVEEASDTAAANQLMNNVPQALQQLAQPTQGTTPSSKLGGLWKTVSPHRSPISNMVSMANNHMSMTNSGVSMTNTLSSMLKGFAPAAAAQAVQTAAQNGVRAMSSLGSSLGSSGLGGGVAANLGRAASVGSLSVPQAWAAANQAVTPAARALPLTSLTSAAERGPGQMLGGLPVGQMGARAGGGLSGVLRVPPRPYVMPHSPAAG
# modifications: tested as peptides
# B2: Rv0288: Mtb antigen, TB vaccine candidate antigen, tested as peptides (protein, UniProt P9WNK3 1-96, looked up)
# ESAT-6-like protein EsxH: MSQIMYNYPAMLGHAGDMAGYAGTLQSLGAEIAVEQAALQSAWQGDTGITYQAWQAQWNQAMEDLVRAYHAMSSTHEANTMAMMARDTAEAAKWGG
# modifications: tested as peptides
# B3: Rv3615c: Mtb antigen included in the ESAT-6 free IGRA test (protein, UniProt P9WJD7 2-103, looked up)
# ESX-1 secretion-associated …: TENLTVQPERLGVLASHHDNAAVDASSGVEAAAGLGESVAITHGPYCSQFNDTLNVYLTAHNALGSSLHTAGVDLAKSLRIAAKIYSEADEAWRKAIDGLFT
# Key:
# [1] = tested on: PBMCs from participants mid-treatment for ATB; assay: Proteome-wide peptide library screen: ex vivo IFNγ and IL-17 Fluorospot, positive pools deconvoluted to individual epitopes; type: cell-based, human; settings: n=21
# [2] = tested on: PBMCs from ATB participants; assay: Fluorospot screen of 517 overlapping 15-mer peptides spanning TB vaccine candidate and IGRA antigens; type: cell-based, human; settings: overlapping 15-mers; IGRA+ data from previous study
Molecule,antigen recognition in the proteome-wide screen [1],antigen recognition in ATB (n=21) compared with healthy IGRA+ participants (n=63) [2]
"Rv3874: Mtb IGRA antigen, tested as peptides",most frequently recognized,most frequently recognized
B1,–,most frequently recognized
B2,most frequently recognized,most frequently recognized
B3,most frequently recognized,–
